From patent US20200102347A1 (AUCTUS BIOLOGIES, published 2020)
No end group written: not given here. *: point of attachment. RhodamineB = CCN(CC)c1ccc2c(-c3ccccc3C(=O)*)c3ccc(=[N+](CC)CC)cc-3oc2c1

Key:
[1] = target: T1, NativeRPtag(large)_with_Tags_and_Cys (Thermoanaerobacter tengcongensis); experiment: fluorescence anisotropy
T1 construct: Unlabeled in anisotropy assays; coupled through the engineered N-terminal Cys to SulfoLink agarose or maleimide plates in column, pull-down and ELISA assays
T1 chain: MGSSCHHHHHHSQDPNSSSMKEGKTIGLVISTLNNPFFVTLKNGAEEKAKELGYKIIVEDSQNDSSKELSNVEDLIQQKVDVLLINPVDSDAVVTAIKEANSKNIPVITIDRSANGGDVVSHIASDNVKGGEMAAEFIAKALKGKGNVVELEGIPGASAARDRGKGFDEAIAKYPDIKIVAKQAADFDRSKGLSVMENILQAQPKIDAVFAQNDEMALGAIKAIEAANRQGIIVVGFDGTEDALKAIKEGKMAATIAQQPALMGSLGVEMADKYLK

[2] = target: T1, NativeRPtag(large)_with_Tags_and_Cys; experiment: calculated from koff and Kd
[3] = target: T1, NativeRPtag(large)_with_Tags_and_Cys; experiment: fluorescence anisotropy, competitor chase
[4] = target: T1, NativeRPtag(large)_with_Tags_and_Cys; experiment: fluorescence anisotropy, association kinetics

RPtag(small) Nd2, k3a, e18a (peptide)
Kd [1]: 0.88 nM
kon [2]: 433000 M⁻¹ s⁻¹
koff [3]: 0.000533 s⁻¹

RhodamineB-ELKLITKENVQ [RPtag(small) Nd10]
Kd [1]: 5.9 nM
kon [2]: 717000 M⁻¹ s⁻¹
koff [3]: 0.00417 s⁻¹

RhodamineB-IANFIPAELKLITKANVQ [RPtag(small) Nd3, p5a, e18a]
Kd [1]: 0.63 nM
kon [2]: 1.53e+06 M⁻¹ s⁻¹
koff [3]: 0.000967 s⁻¹

RhodamineB-IPNFIPAELKLITKENVQ [RPtag(small) Nd3]
Kd [1]: 0.14 nM
kon [2]: 1.47e+06 M⁻¹ s⁻¹
koff [3]: 0.0002 s⁻¹

RhodamineB-KLITKENVQ [RPtag(small) Nd12]
Kd [1]: 520 nM
koff [3]: > 0.0333 s⁻¹

RhodamineB-GEKIPNFIPAELKLIT [RPtag(small) Cd5]
Kd [1]: 3.6 nM
kon [2]: 1.83e+06 M⁻¹ s⁻¹
koff [3]: 0.0065 s⁻¹

RhodamineB-GEKIPNFIPAELKL [RPtag(small) Cd7]
Kd [1]: 30000 nM
koff [3]: > 0.0333 s⁻¹

RhodamineB-AIANFIPAELKLITKENVQ [RPtag(small) Nd2, k3a, p5a]
Kd [1]: 0.55 nM
kon [2]: 400000 M⁻¹ s⁻¹
koff [3]: 0.00015 s⁻¹

RhodamineB-IPAELKLITKENVQ [RPtag(small) Nd7]
Kd [1]: 2.4 nM
kon [2]: 300000 M⁻¹ s⁻¹
koff [3]: 0.0007 s⁻¹

RhodamineB-AELKLITKENVQ [RPtag(small) Nd9]
Kd [1]: 4.9 nM
kon [2]: 1.37e+06 M⁻¹ s⁻¹
koff [3]: 0.00667 s⁻¹

RhodamineB-PNFIPAELKLITKENVQ [RPtag(small) Nd4]
Kd [1]: 0.3 nM
kon [2]: 1.57e+06 M⁻¹ s⁻¹
koff [3]: 0.000467 s⁻¹

RhodamineB-LITKENVQ [RPtag(small) Nd13]
Kd [1]: 84000 nM
koff [3]: > 0.0333 s⁻¹

RhodamineB-PAELKLITKENVQ [RPtag(small) Nd8]
Kd [1]: 0.59 nM
kon [2]: 1.55e+06 M⁻¹ s⁻¹
koff [3]: 0.000917 s⁻¹

RhodamineB-GAKIPNFIPAELKLITKENVQ [RPtag(small) e2a]
Kd [1]: 0.1 nM
kon [2]: 850000 M⁻¹ s⁻¹
koff [3]: 8.83e-05 s⁻¹
Keq (S-S*) [4]: 1.9
kf (S to S*) [4]: 0.084 min⁻¹
kr (S* to S) [4]: 0.044 min⁻¹

RhodamineB-GEKIPNFIPAALKLITKENVQ [RPtag(small) e11a]
Kd [1]: 0.8 nM
kon [2]: 76700 M⁻¹ s⁻¹
koff [3]: 0.000112 s⁻¹
Keq (S-S*) [4]: 1.9
kf (S to S*) [4]: 0.08 min⁻¹
kr (S* to S) [4]: 0.042 min⁻¹

RhodamineB-GEKIPNFIPAELKAITKENVQ [RPtag(small) l14a]
Kd [1]: 8.9 nM
koff [3]: > 0.0333 s⁻¹
Keq (S-S*) [4]: 1.8
kf (S to S*) [4]: 0.075 min⁻¹
kr (S* to S) [4]: 0.044 min⁻¹

RhodamineB-GEKIPNFIPAELKLITAENVQ [RPtag(small) k17a]
Kd [1]: 0.54 nM
kon [2]: 167000 M⁻¹ s⁻¹
koff [3]: 9.5e-05 s⁻¹

RhodamineB-GEKIPNAIPAELKLITKENVQ [RPtag(small) f7a]
Kd [1]: 2 nM
kon [2]: 517000 M⁻¹ s⁻¹
koff [3]: 0.00105 s⁻¹
Keq (S-S*) [4]: 2.2
kf (S to S*) [4]: 0.08 min⁻¹
kr (S* to S) [4]: 0.036 min⁻¹

RhodamineB-GEAIPNFIPAELKLITKENVQ [RPtag(small) k3a]
Kd [1]: 0.49 nM
kon [2]: 183000 M⁻¹ s⁻¹
koff [3]: 8.83e-05 s⁻¹

RhodamineB-GEKIPNFIPAELKLITKANVQ [RPtag(small) e18a]
Kd [1]: 0.056 nM
kon [2]: 2.67e+06 M⁻¹ s⁻¹
koff [3]: 0.000145 s⁻¹
Keq (S-S*) [4]: 1.1
kf (S to S*) [4]: 0.054 min⁻¹
kr (S* to S) [4]: 0.048 min⁻¹

RhodamineB-GEKIPNFIPAELKLI [RPtag(small) Cd6]
Kd [1]: 200 nM
koff [3]: > 0.0333 s⁻¹

RhodamineB-FIPAELKLITK [RPtag(small) Nd6, Cd4]
Kd [1]: 9.9 nM
koff [3]: > 0.0333 s⁻¹

RhodamineB-FIPAELKLITKE [RPtag(small) Nd6, Cd3]
Kd [1]: 7.3 nM
koff [3]: > 0.0333 s⁻¹

RhodamineB-FIPAELKLITKA [RPtag(small) Nd6, Cd3, e18a]
Kd [1]: 8.2 nM
koff [3]: > 0.0333 s⁻¹

RhodamineB-ELKLITKE [RPtag(small) Nd10, Cd3]
Kd [1]: 57 nM
koff [3]: > 0.0333 s⁻¹
kf (S to S*) [4]: 0.32 min⁻¹
kr (S* to S) [4]: 0.05 min⁻¹

RhodamineB-ELKLITKA [RPtag(small) Nd10, Cd3, e18a]
Kd [1]: 71 nM
koff [3]: > 0.0333 s⁻¹

RhodamineB-KIPNFIPAELKLITKANVQ [RPtag(small) Nd2, e18a]
Kd [1]: 0.13 nM
kon [2]: 1.08e+06 M⁻¹ s⁻¹
koff [3]: 0.000138 s⁻¹
Keq (S-S*) [4]: 0.4
kf (S to S*) [4]: 0.044 min⁻¹
kr (S* to S) [4]: 0.13 min⁻¹

RhodamineB-KIPNFIPAELKLITKENVQ [RPtag(small) Nd2]
Kd [1]: 0.067 nM
kon [2]: 883000 M⁻¹ s⁻¹
koff [3]: 5.83e-05 s⁻¹
Keq (S-S*) [4]: 0.7
kf (S to S*) [4]: 0.063 min⁻¹
kr (S* to S) [4]: 0.086 min⁻¹

RhodamineB-RIANFIPAELKLITKANVQ [RPtag(small) Nd2, k3r, p5a, e18a]
Kd [1]: 0.26 nM
kon [2]: 567000 M⁻¹ s⁻¹
koff [3]: 0.000217 s⁻¹

RhodamineB-NFIPAELKLITKENVQ [RPtag(small) Nd5]
Kd [1]: 0.59 nM
kon [2]: 1.6e+06 M⁻¹ s⁻¹
koff [3]: 0.000933 s⁻¹

RhodamineB-ELKLIT [RPtag(small) Nd10, Cd5]
Kd [1]: 250 nM
koff [3]: > 0.0333 s⁻¹

RhodamineB-PAELKLITKE [RPtag(small) Nd8, Cd3]
Kd [1]: 11 nM
koff [3]: > 0.0333 s⁻¹
Keq (S-S*) [4]: 6.5
kf (S to S*) [4]: 0.095 min⁻¹
kr (S* to S) [4]: 0.015 min⁻¹

RhodamineB-PAELKLITKA [RPtag(small) Nd8, Cd3, e18a]
Kd [1]: 13 nM
koff [3]: > 0.0333 s⁻¹

RhodamineB-LKLITKENVQ [RPtag(small) Nd11]
Kd [1]: 16 nM
kon [2]: 1.18e+06 M⁻¹ s⁻¹
koff [3]: 0.02 s⁻¹

RhodamineB-FIPAELKLITKENVQ [RPtag(small) Nd6]
Kd [1]: 0.54 nM
kon [2]: 2e+06 M⁻¹ s⁻¹
koff [3]: 0.00108 s⁻¹
